B1: GAS2-GAR domain (residues 198-314) (domain or fragment)
chain: STGNLLDDAVKRISEDPPCKCPTKFCVERLSQGRYRVGEKILFIRMLHNKHVMVRVGGGWETFAGYLLKHDPCRMLQISRVDGKTSPVQSKSPTLKDMNPDNYLVVSATYKAKKEIK

Target: the molecule itself
Assay: SEC

Molecule	stoichiometry N
B1	2

Each molecule was assayed against microtubules (polymerized porcine brain tubulin) (porcine) (UniProt Q2XVP4) (assay: co-sedimentation).

Kd [µM]	Molecule
2.69	GAS2-GAR G255A (from UniProt P11862 198-314) (domain or fragment)
9.6	GAS2-GAR G255E (from UniProt P11862 198-314) (domain or fragment)
10.6	GAS2-GAR K266E (from UniProt P11862 198-314) (domain or fragment)
5	GAS2-GAR R242E (from UniProt P11862 198-314) (domain or fragment)
47	GAS2-GAR R252E (from UniProt P11862 198-314) (domain or fragment)
27	GAS2-GAR W257E (from UniProt P11862 198-314) (domain or fragment)
0.69	B1

— doi:10.1101/2024.08.19.608523 (bioRxiv, 2024)
